Source: article PMC6389858

What was measured:
[1] = biological target: T1, OxyR (Escherichia coli K12 BW25113?) (UniProt P0ACQ4); assay: EMSA; details: EMSA: 10 mM HEPES pH 7.3, 20 mM KCl, 1 mM MgCl2, 5% glycerol, poly dI-dC, NP-40, 25 C, 2 h; 6% DNA retardation gel
T1 sequence: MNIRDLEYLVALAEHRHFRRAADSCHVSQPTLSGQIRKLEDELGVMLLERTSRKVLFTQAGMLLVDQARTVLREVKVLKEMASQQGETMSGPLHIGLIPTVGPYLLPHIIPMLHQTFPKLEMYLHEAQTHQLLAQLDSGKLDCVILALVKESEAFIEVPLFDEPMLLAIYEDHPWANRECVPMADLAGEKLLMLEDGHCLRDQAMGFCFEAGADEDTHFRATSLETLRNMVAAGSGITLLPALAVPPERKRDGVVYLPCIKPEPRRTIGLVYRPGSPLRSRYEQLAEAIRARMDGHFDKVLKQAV

[2] = biological target: T1, OxyR (Escherichia coli K12 BW25113?); assay: competition; details: EMSA: 10 mM HEPES pH 7.3, 20 mM KCl, 1 mM MgCl2, 5% glycerol, poly dI-dC, NP-40, 25 C, 2 h; 6% DNA retardation gel

## ACTGGCCTGATAAGCCTGTTTACCTCGGGGCGCAGGCGCATCTGCAAAACTTCTACCAGAGTTTCGGTTTTATCCCTGTGACGGAGGTCTATGAAGAAGATGGTATCCCACACATTGGGATGGCACGCGAGGTAATTCAGGCGTAATCAACAACCCTTGTCTATAGTTAGTGACAGGTTTTACGCAAATGGAGAACGAGA (double strand) [PelaB-S (elaB promoter probe with OxyR binding site 2)]
[1]
  binding: binds
[2]
  binding: binds
